Assay [1] deals with bClC-K tagged with mVenus and PAmCherry (Bos taurus). In words: native gel or EMSA; high-resolution clear native electrophoresis (hrCNE); lysate of transfected HEK293T cells in 0.1 M sodium phosphate with 0.5% digitonin or 20 mM DDM; 4-14% acrylamide gradient gel run at 4 °C; mVenus fluorescence scanned; VGLUTs and sialin with and without PNGaseF. Background: In EMSA bound probe runs differently from free probe, usually more slowly.

Assay [2] concerns the target ClC-2 tagged with mVenus and PAmCherry (human) (UniProt P51788). The assay is described as above.

Chain of ClC-2 tagged with mVenus and PAmCherry (P51788 2-898): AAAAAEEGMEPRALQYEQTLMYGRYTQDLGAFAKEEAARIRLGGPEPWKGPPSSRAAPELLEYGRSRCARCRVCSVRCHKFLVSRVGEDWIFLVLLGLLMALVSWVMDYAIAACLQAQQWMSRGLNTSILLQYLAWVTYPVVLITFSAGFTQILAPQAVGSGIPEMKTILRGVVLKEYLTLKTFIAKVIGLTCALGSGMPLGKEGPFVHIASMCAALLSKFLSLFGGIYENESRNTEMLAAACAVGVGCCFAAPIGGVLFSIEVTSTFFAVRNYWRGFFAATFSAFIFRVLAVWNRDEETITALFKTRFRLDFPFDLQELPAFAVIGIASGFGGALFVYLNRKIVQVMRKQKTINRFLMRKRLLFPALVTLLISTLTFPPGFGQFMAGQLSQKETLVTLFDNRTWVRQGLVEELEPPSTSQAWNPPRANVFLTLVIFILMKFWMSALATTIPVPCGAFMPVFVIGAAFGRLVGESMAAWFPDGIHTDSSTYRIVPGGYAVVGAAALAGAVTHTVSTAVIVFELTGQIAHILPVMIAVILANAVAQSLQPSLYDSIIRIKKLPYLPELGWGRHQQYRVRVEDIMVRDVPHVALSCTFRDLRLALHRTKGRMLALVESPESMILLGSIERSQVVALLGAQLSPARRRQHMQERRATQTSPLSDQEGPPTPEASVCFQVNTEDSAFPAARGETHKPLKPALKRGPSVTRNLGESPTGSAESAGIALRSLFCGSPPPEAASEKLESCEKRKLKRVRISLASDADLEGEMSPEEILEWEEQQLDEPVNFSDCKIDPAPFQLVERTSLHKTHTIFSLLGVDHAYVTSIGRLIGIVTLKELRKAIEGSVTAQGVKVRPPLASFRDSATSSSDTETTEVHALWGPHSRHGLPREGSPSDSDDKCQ

Broadly, the stoichiometry N is the number of molecules, sites or subunits per partner or assembly. “bClC-K tagged with mVenus and PAmCherry (natural protein)”: the stoichiometry N in assay [1] was 2. “ClC-2 tagged with mVenus and PAmCherry (from UniProt P51788 1-898) (natural protein)”: the stoichiometry N in assay [2] was 2.
